± gives the standard deviation of the averaged measurements.
The sequences below were run on ATP (assay: switch fluorescence ratio, 500 uM ATP over buffer (Cy3 cluster intensity, sum of 5 cycles each) (fold (ratio)); higher = stronger signal-on switching upon ATP binding; sequences stand for … in TCGTCGGCAGCGTCAGATGTGTATAAGAGACAGTTTTTTTTTTTTTTTTTTTTTTTTT…TC). Details: aptamer strand: ATP DNA aptamer (quencher-CACCTGGGGGAGTATTGCGGAGGAAGG + anchor), 100 nM annealed; ATP concentration: 500 uM.
Method in brief: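 Five buffer/ATP imaging cycles were run on Cy3-labelled switching-strand clusters on a modified Illumina MiSeq flow-cell, with NaOH stripping and re-annealing between cycles. In each cycle, clusters annealed to 100 nM quencher-labelled ATP aptamer were imaged in selection buffer, then after 15 min with 500 uM ATP at 22 °C. Per cluster, the fluorescence ratio is summed target-cycle over summed buffer-cycle Cy3 intensity, averaged per switch-domain sequence. Only clusters within 100-1000 RFU were kept.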
For TCCTTCACGA, the switch fluorescence ratio was 2.067 ± 0.017. In the case of TCCTTCCGGG, the switch fluorescence ratio is reported as 2.16 ± 0.19. With TCCTTGAGTG the switch fluorescence ratio was 1.03 ± 0.031. TCCTTGATAT gave a switch fluorescence ratio of 0.995 ± 0.04. Sequence TCCTTGGGTT has a switch fluorescence ratio of 1.016 ± 0.0099. Sequence TCCTTGTCTT has a switch fluorescence ratio of 1.01 ± 0.016. Work on TCCTTTATAC yielded a switch fluorescence ratio of 3.09 ± 0.71. In the case of TCCTTTTATG, the switch fluorescence ratio is reported as 0.98329 ± 2.8e-05. Sequence TCCTTTTTTT has a switch fluorescence ratio of 1.01 ± 0.033. TCGAAACTGG showed a switch fluorescence ratio of 1.09 ± 0.11. TCGAAGTGAA was tested, and the switch fluorescence ratio was 1.09 ± 0.018. In the case of TCGAAGTTTT, the switch fluorescence ratio is reported as 0.9996 ± 0.0089. Work on TCGAATATGT yielded a switch fluorescence ratio of 0.986 ± 0.025. In the case of TCGACCGGGG, the switch fluorescence ratio is reported as 1.039 ± 0.0098. Sequence TCGACGGAGT has a switch fluorescence ratio of 1.114 ± 0.00049. With TCGACTGGGG the switch fluorescence ratio was 1 ± 0.034. For TCGAGAATGG, the switch fluorescence ratio was 0.952 ± 0.017. With TCGAGAGAAA the switch fluorescence ratio was 1.01 ± 0.016. TCGAGAGGGT was tested, and the switch fluorescence ratio was 0.996 ± 0.015. TCGAGAGGTG showed a switch fluorescence ratio of 1.1 ± 0.1. TCGAGATAGC was tested, and the switch fluorescence ratio was 1.03 ± 0.011. With TCGAGATATG the switch fluorescence ratio was 0.978 ± 0.09. With TCGAGCACTG the switch fluorescence ratio was 1.13 ± 0.065. Work on TCGAGCAGCT yielded a switch fluorescence ratio of 1.1 ± 0.032. TCGAGCCCCA was tested, and the switch fluorescence ratio was 1.04 ± 0.087. TCGAGGAATT was tested, and the switch fluorescence ratio was 1.02 ± 0.02. Work on TCGAGGGAGT yielded a switch fluorescence ratio of 1.02 ± 0.028. TCGAGGTAGA showed a switch fluorescence ratio of 1.01 ± 0.05. With TCGAGTCATC the switch fluorescence ratio was 0.965 ± 0.019. For TCGAGTGGAG, the switch fluorescence ratio was 1.0319 ± 0.00064. TCGATAGACG gave a switch fluorescence ratio of 1.02 ± 0.018. Work on TCGATCTTTT yielded a switch fluorescence ratio of 1.24 ± 0.4. TCGATGCTGG was tested, and the switch fluorescence ratio was 0.982 ± 0.084. In the case of TCGATTCGAT, the switch fluorescence ratio is reported as 1.35 ± 0.57. In the case of TCGATTTCTT, the switch fluorescence ratio is reported as 1.1 ± 0.077. TCGCAAAATT showed a switch fluorescence ratio of 2.15 ± 1.3. In the case of TCGCAGCAGG, the switch fluorescence ratio is reported as 2.82 ± 0.097. TCGCGACTTG showed a switch fluorescence ratio of 0.9946 ± 0.0054. TCGCGAGGAG gave a switch fluorescence ratio of 1.04 ± 0.014. TCGCGAGGGG showed a switch fluorescence ratio of 0.997 ± 0.025. TCGCGCGGTG gave a switch fluorescence ratio of 0.978 ± 0.021. With TCGCGGGAAA the switch fluorescence ratio was 1.01 ± 0.025. In the case of TCGCTGGGAT, the switch fluorescence ratio is reported as 1.2 ± 0.27. TCGCTGTAGG was tested, and the switch fluorescence ratio was 1.1 ± 0.059. TCGGAATCAA gave a switch fluorescence ratio of 1.127 ± 0.0071. TCGGACTCTT showed a switch fluorescence ratio of 1.01 ± 0.024. TCGGAGAGGA was tested, and the switch fluorescence ratio was 0.986 ± 0.016. In the case of TCGGAGATAT, the switch fluorescence ratio is reported as 1 ± 0.045. In the case of TCGGAGGAAA, the switch fluorescence ratio is reported as 0.999 ± 0.047. TCGGAGGTCA showed a switch fluorescence ratio of 0.956 ± 0.03. Sequence TCGGATGGTT has a switch fluorescence ratio of 0.978 ± 0.024. TCGGCACCGG was tested, and the switch fluorescence ratio was 1.02 ± 0.024. TCGGCATGGG gave a switch fluorescence ratio of 1.11 ± 0.11. In the case of TCGGCATTAA, the switch fluorescence ratio is reported as 1.37 ± 0.1. Sequence TCGGCATTTT has a switch fluorescence ratio of 1.027 ± 0.0014. Sequence TCGGCCCAGG has a switch fluorescence ratio of 3.6 ± 1.4. In the case of TCGGCCGGGG, the switch fluorescence ratio is reported as 1.02 ± 0.015. For TCGGCGAAAG, the switch fluorescence ratio was 1.02 ± 0.023. TCGGCGACAT gave a switch fluorescence ratio of 1.005 ± 0.0072. For TCGGCGAGGG, the switch fluorescence ratio was 0.977 ± 0.021. TCGGCGTCTT gave a switch fluorescence ratio of 0.977 ± 0.04. In the case of TCGGCTATG, the switch fluorescence ratio is reported as 1.12 ± 0.15. TCGGCTATTT showed a switch fluorescence ratio of 1.03 ± 0.019. For TCGGCTTAGG, the switch fluorescence ratio was 0.987 ± 0.048. Sequence TCGGGAAATT has a switch fluorescence ratio of 1.012 ± 0.0019. Work on TCGGGACGGG yielded a switch fluorescence ratio of 1.01 ± 0.013. With TCGGGAGAGC the switch fluorescence ratio was 1.04 ± 0.038. For TCGGGAGATT, the switch fluorescence ratio was 1.02 ± 0.029. TCGGGATCGG showed a switch fluorescence ratio of 1 ± 0.015. TCGGGCAGCG showed a switch fluorescence ratio of 0.989 ± 0.058. With TCGGGCAGGG the switch fluorescence ratio was 1.003 ± 0.0044. Sequence TCGGGGATCT has a switch fluorescence ratio of 1.033 ± 0.0073. TCGGGGCCGT gave a switch fluorescence ratio of 0.971 ± 0.059. TCGGGGCCTC gave a switch fluorescence ratio of 1.04 ± 0.024. In the case of TCGGGGCTCT, the switch fluorescence ratio is reported as 1.07 ± 0.12. TCGGGGCTTT showed a switch fluorescence ratio of 0.982 ± 0.022. TCGGGGGAAG was tested, and the switch fluorescence ratio was 1.01 ± 0.038. TCGGGGGAGC gave a switch fluorescence ratio of 0.984 ± 0.025. With TCGGGGGGAA the switch fluorescence ratio was 1.06 ± 0.057. TCGGGGGGTT was tested, and the switch fluorescence ratio was 0.998 ± 0.034. TCGGGGGTAA was tested, and the switch fluorescence ratio was 1.01 ± 0.033. TCGGGGGTCG gave a switch fluorescence ratio of 0.954 ± 0.097. Work on TCGGGGTCTG yielded a switch fluorescence ratio of 0.9872 ± 0.0066. For TCGGGGTGCA, the switch fluorescence ratio was 0.9732 ± 0.0086. TCGGGGTGTG gave a switch fluorescence ratio of 0.988 ± 0.031. With TCGGGGTTCG the switch fluorescence ratio was 0.992 ± 0.03. Sequence TCGGGGTTGG has a switch fluorescence ratio of 0.978 ± 0.029. TCGGGTAAAA was tested, and the switch fluorescence ratio was 1.01 ± 0.028. Work on TCGGGTAGTG yielded a switch fluorescence ratio of 1.01 ± 0.026. TCGGGTATAT showed a switch fluorescence ratio of 1 ± 0.044. For TCGGGTCGTA, the switch fluorescence ratio was 1.02 ± 0.019. TCGGGTGTGA gave a switch fluorescence ratio of 1.029 ± 0.0015. TCGGGTGTTG showed a switch fluorescence ratio of 1.03 ± 0.048. TCGGGTTGTG showed a switch fluorescence ratio of 0.959 ± 0.031. Sequence TCGGTAGCAG has a switch fluorescence ratio of 1.092 ± 0.01. Work on TCGGTCCGAT yielded a switch fluorescence ratio of 0.9997 ± 0.005. TCGGTGAATT showed a switch fluorescence ratio of 1.01 ± 0.011. For TCGGTGAGGG, the switch fluorescence ratio was 1.02 ± 0.07. Work on TCGGTGCCTG yielded a switch fluorescence ratio of 1.01 ± 0.36. TCGGTGGTAA gave a switch fluorescence ratio of 0.9823 ± 0.0065. Sequence TCGGTTTTGT has a switch fluorescence ratio of 0.983 ± 0.026. TCGTAAAGGA was tested, and the switch fluorescence ratio was 1.03 ± 0.043. Sequence TCGTACTGAC has a switch fluorescence ratio of 1.03 ± 0.044. For TCGTACTGGT, the switch fluorescence ratio was 0.99 ± 0.068. Sequence TCGTAGACGT has a switch fluorescence ratio of 1.01 ± 0.011. In the case of TCGTAGGAGG, the switch fluorescence ratio is reported as 1.07 ± 0.024. In the case of TCGTAGGATG, the switch fluorescence ratio is reported as 0.975 ± 0.037. In the case of TCGTAGGTAA, the switch fluorescence ratio is reported as 1.1 ± 0.12. TCGTAGTATT showed a switch fluorescence ratio of 0.993 ± 0.021. Sequence TCGTATCATT has a switch fluorescence ratio of 0.976 ± 0.02. With TCGTCAGCTG the switch fluorescence ratio was 1.02 ± 0.061. In the case of TCGTCTCTTT, the switch fluorescence ratio is reported as 0.986 ± 0.018. With TCGTGAACCC the switch fluorescence ratio was 1.01 ± 0.023. TCGTGAAGAG showed a switch fluorescence ratio of 0.987 ± 0.012. TCGTGAAGCG was tested, and the switch fluorescence ratio was 1.04 ± 0.025. TCGTGATGTA was tested, and the switch fluorescence ratio was 0.974 ± 0.014. TCGTGCATGG was tested, and the switch fluorescence ratio was 1.046 ± 0.008. With TCGTGCGCTG the switch fluorescence ratio was 0.997 ± 0.079. For TCGTGCGGGG, the switch fluorescence ratio was 0.969 ± 0.016. TCGTGCTGGG was tested, and the switch fluorescence ratio was 1 ± 0.067. Sequence TCGTGGACGC has a switch fluorescence ratio of 0.995 ± 0.031. For TCGTGGATGT, the switch fluorescence ratio was 1 ± 0.028. TCGTGGGGTG showed a switch fluorescence ratio of 0.999 ± 0.042. TCGTGGGTGC gave a switch fluorescence ratio of 1.01 ± 0.023. TCGTGGTTTA was tested, and the switch fluorescence ratio was 0.994 ± 0.021. In the case of TCGTGGTTTC, the switch fluorescence ratio is reported as 0.9823 ± 0.0069. With TCGTGTGACC the switch fluorescence ratio was 1.009 ± 0.0093. TCGTGTTCTT was tested, and the switch fluorescence ratio was 0.95 ± 0.028. With TCGTGTTGTT the switch fluorescence ratio was 0.969 ± 0.021. In the case of TCGTGTTTTT, the switch fluorescence ratio is reported as 1.01 ± 0.013. TCGTTAAACT was tested, and the switch fluorescence ratio was 1.02 ± 0.011. In the case of TCGTTAATGG, the switch fluorescence ratio is reported as 1.004 ± 0.0049. In the case of TCGTTCGAGG, the switch fluorescence ratio is reported as 0.958 ± 0.013. With TCGTTGAACG the switch fluorescence ratio was 0.973 ± 0.03. Work on TCGTTGAGTG yielded a switch fluorescence ratio of 1.02 ± 0.056. TCGTTGCGT gave a switch fluorescence ratio of 1.01 ± 0.0017. With TCGTTGGCGG the switch fluorescence ratio was 0.951 ± 0.019. For TCGTTGGGGA, the switch fluorescence ratio was 1 ± 0.018. With TCGTTGGGTG the switch fluorescence ratio was 0.994 ± 0.015. In the case of TCGTTGGTTT, the switch fluorescence ratio is reported as 0.994 ± 0.021. In the case of TCGTTGTGTG, the switch fluorescence ratio is reported as 0.981 ± 0.019. TCGTTTCATA showed a switch fluorescence ratio of 0.9784 ± 0.0036. TCGTTTGTGG showed a switch fluorescence ratio of 1.04 ± 0.013. With TCGTTTTAGT the switch fluorescence ratio was 0.985 ± 0.014. TCGTTTTGTT showed a switch fluorescence ratio of 0.975 ± 0.051. Sequence TCGTTTTTAT has a switch fluorescence ratio of 0.983 ± 0.023. Sequence TCTAAAAAGG has a switch fluorescence ratio of 0.998 ± 0.025. TCTAAAATTT gave a switch fluorescence ratio of 1.15 ± 0.18. Work on TCTAAAGTGT yielded a switch fluorescence ratio of 0.983 ± 0.0088. In the case of TCTAAGGGGA, the switch fluorescence ratio is reported as 1.06 ± 0.11. Sequence TCTAAGTGAG has a switch fluorescence ratio of 1.02 ± 0.016. TCTAAGTTA showed a switch fluorescence ratio of 0.998 ± 0.012. TCTAATGAGG was tested, and the switch fluorescence ratio was 1.006 ± 0.0063.

From the supplement of paper PMC10126150
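Note: ATP exposure 15 min at 22 °C before imaging.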
